The values that follow come from the DeepSol protein solubility set.

A short description of this data set: soluble on expression in E. coli; label from the status in PepcDB or PDB records.
On to “GAQLLGVHPKGESQRASRGGGQATKMSSAVGPRGPRPPTVPPPMQELPDLSHLTEEERNIIMAVMDRQKEEEEKEEAMLKCVVRDMAKPAACKTPRNAENQPHQPSPRLHQQFESYKEQVRKIGEEARRYQGEHKDDAPTCGICHKTKFADGCGHLCSYCRTKFCARCGGRVSLRSNNEDKVVMWVCNLCRKQQEILTKSGAWFFGSGPQQTSQDGTLSDTATGAGSEVPREKKARLQERSRSQTPLSTAAASSQDAAPPSAPPDRSKGAEPSQQALGPEQKQASSRSRSEPPRERKKTPGLSEQNGKGALKSERKRVPKTSAQPVEGAVEERERKERRESRRLEKGRSQDYPDTPEKRDEGKAADEEKQRKEEDYQTRYRSDPNLARYPVKPPPEEQQMRMHARVSRARHERRHSDVALPRTEAGAALPEGKAGKRAPAAARASPPDSPRAYSAERTAETRAPGAKQLTNHSPPAPRHGPVPAEAPELKAQEPLRKQSRLDPSSAVLMLRNDSLSSDQSESVRPSPPKPHRSKRGGKKRQMSVSSSEEEGVSTPEYTSCEDVELESESVSEKGDLDYYWLDPATWHSRETSPISSHPVTWQPSKEGDRLIGRVILNKRTTMPKDSGALLGLKVVGGKMTDLGRLGAFITKVKKGSLADVVGHLRAGDEVLEWNGKPLPGATNEEVYNIILESKSEPQVEIIVSRPIGDIPRIPESSHPPLESSSSSFESQKMERPSISVISPTSPGALKDAPQVLPGQLSVKLWYDKVGHQLIVNVLQATDLPARVDGRPRNPYVKMYFLPDRSDKSKRRTKTVKKILEPKWNQTFVYSHVHRRDFRERMLEITVWDQPRVQEEESEFLGEILIELETALLDDEPHWYKLQTHDESSLPLPQPSPFMPRRHIHGESSSKKLQRSQRISDSDISDYEVDDGIGVVPPVGYRSSARESKSTTLTVPEQQRTTHHRSRSVSPHRGNDQGKPRSRLPNVPLQRSLDEIHPTRRSRSPTRHHDASRSPVDHRTRDVDSQYLSEQDSELLMLPRAKRGRSAECLHTTR”, for which the “soluble on expression in E. coli” value is given as “soluble”.

“MYYYVNEHEKALADFDKVIELNPKEDKTYYWKGLVYEYLKQYESSLVYLNKAIQLNDKNYKYYELRSLVYKQLREYDKAYSDVNVAIKLNQNNGILYSLRGLLNKYLNKYNDAIIDYNKSIELMPEFIAPYKSLLSIYLQTQNYEAGLEVANKAINIEQSWILYSTRGYLFLMLQSYNEAISDSNRAIKLNSGFADSYLTRGKAYLALKEYKKAIEDFDRAIELDSDNIDKVKQEAYEALAEMGEK”: the “soluble on expression in E. coli” value is reported as “not soluble”.

As for “MKNYKKYYIIPAPPEEVYLALTVPTTLLLWTGEEAVMSTEPESEFSLWGGSIEGRNIEFIEGKKIVQQWYFGDQEEPSIVTIILHPDKQDSTSAELRHTNIPDEAYEDMVEGWNGAYFGALQEFYEDEELEHHHHHH”, the “soluble on expression in E. coli” value was “soluble”.

For the sequence “MRWNICVVGAGKIGQMIAALLKTSSNYSVTVADHDLAALAVLNRMGVATKQVDAKDEAGLAKALGGFDAVISAAPFFLTPIIAKAAKAAGAHYFDLTEDVAATNAVRALAEDSQTAFMPQCGLAPGFVGIAGAALAAEFDEIDSLHMRVGALPLYPTNALKYNLTWSTDG”, the “soluble on expression in E. coli” value is reported as “not soluble”.

For the sequence “AIAPAKERFFGFHPCKLVEQVEDCVRDLLEDALDGLETSLFRECALAFDALQENAVTSEHEHAKRLLLQQGLMRLRDALFTAFYDQMDRLQVYLLRNVFHIPPGLRIPNVNTSEDLVENWEQALGIDPSSVQIDANAEDEHAVDQELVALRQSLRVARQRLQRLCRERSVLEGAFHRLEGALQSRLASTLIPTEPEDPSGDCDALAKQVVTIARAVSELEAVVRSCRDQFLGDRSSAASGGAPPSGTVPAAAGGSDVGAQGALVRPPLELERIFDAHTKATRVDSLDAVDALRRALHRSC”, the “soluble on expression in E. coli” value was “soluble”.

In the case of “MAHRTFRLCRLRIRRLRDHPLRQDGMVDYSTTATTNTLYLLHTGHHVPPPPSHRNPPFSFRSFRPPIQPCSPNSHHVDNVIILASAIK”, the “soluble on expression in E. coli” value is on record as “not soluble”.

As to “MPSFLEISPDKLNRLIGTPGAPRIIDVRTDEDFALDPRLVPGSIRRDHAEVASWADSIDADAVVVVCHRGAKLSHGVAAYLRHAGIEAESLAGGFEAWAAAGPAVPEAKLSRRDAQGRTVWVTRARPKIDRIACPWLIRRFIDPNAVFLFVPAPEVVAVGERFGAAPFDIEDVFWSHRGELCTFDVMVEEFGLASEPLLRLAQIVRAADTARLDLAPEASGLLAASLGLSRMYSDDLEQLEAGMLLYDAFFRWCRDATEETHNWPAPKKRALEHHHHHH”, the “soluble on expression in E. coli” value is “soluble”.

On to “MAHHHHHHMGVGFQSKKLQNFCHSGAGEMCALENCIPRWGSFPCNAPGLTPVYELSSFENVELPLIFQKSNIGDLLASTSDSVGQLNGFQARHSNTEGIKSQVSYTSVALSTTNRENLFGWVDCAALPLCSSSTAGASILLVTLLTRESRGKSCMCILDDLVCQLSNGPFNWGCGGDCHDLISISLPSEPRNHAACPIILPIAKLSRKEIWLREAAPKMDVETIIYEGDNQQHLVDDVANGTNAGSCAVMEAGCRPETALGPENVKYGDNESVTQCEVTVDITPSTEPSARCLHFSECTTPVSSNRSFMEPIPLSNMESKALRCRKFDGTSYEVLRRRAHSDALSLILKKYSEHLERVSQTSGRRGLDAHC”, for which the “soluble on expression in E. coli” value is recorded as “soluble”.

Take “MGSSHHHHHHSSGLVPRGSAVPLCKQALEDLEKTSGHDHPDVATMLNILALVYRDQNKYKEAAHLLNDALAIREKTLGKDHPAVAATLNNLAVLYGKRGKYKEAEPLCKRALEIREKVLGKFHPDVAKQLSNLALLCQNQGKAEEVEYYYRRALEIYATRLGPDDPNVAKTKNNLASCYLKQGKYQDAETLYKEILTRAHEKEFGSVNGDNKPIWMHAEEREESKDKRRDSAPYGEYGSWYKACKVDSPTVNTTLRSLGALYRRQGKLEAAHTLEDCASRNRK”: the “soluble on expression in E. coli” value is recorded as “soluble”.

As for “MLTTLAISNYRTLREIVLPLGRLNVVTGANGSGKSNLYKALRLLAQTAQGGVVNALALEGGLDSCFWAGPENLTKGMLAGDTPIEATVRQAPKRLKLGFAGEDFSYLIELGLPKPDSTTLFGLDPQIKREAIWNGAKYRPASVLVERRGPMVKSRSQDGQGWITLSAHLQSSDSIFTELADPERSPEVLKLRDSIRAWRFYDHFRTDTDAPARRPQLGTATPVLHHDGRDLPSAIQTIFEIGDKSAFDHAVSDAFPGAKVRITPQAGGILQLEFQQQGLLRPLYASELSDGTLRYLLLIAALLTPRPPELMVLNEPETSLHPDLLPALARLIAKASELEHHHHHH”, the “soluble on expression in E. coli” value is reported as “not soluble”.

“MGSDKIHHHHHHMLSGENKMLDIDKSTVDFLVTENMVQEVEKVLSHDVPLVHAIVEEMVKRDIDRIYFVACGSPLNAAQTAKHLADRFSDLQVYAISGWEFCDNTPYRLDDRCAVIGVSDYGKTEEVIKALELGRACGALTAAFTKRADSPITSAAEFSIDYQADCIWEIHLLLCYSVVLEMITRLAPNAEIGKIKNDLKQLPNALGHLVRTWEEKGRQLGELASQWPMIYTVAAGPLRPLGYKEGIVTLMEFTWTHGCVIESGEFRHGPLEIVEPGVPFLFLLGNDESRHTTERAINFVKQRTDNVIVIDYAEISQGLHPWLAPFLMFVPMEWLCYYLSIYKDHNPDERRYYGGLVEY”: the “soluble on expression in E. coli” value is “not soluble”.

For “MTYGYPKKWKENMTSGQVIAAELRLGIVSGEIESHIQLSENQVAQQFNVSRSPVRDAFKLLQTDQLIQLERMGAQVLPFGDQEKKEMYDLRLMLESFAFSKLSGTDTQHIIKEMKKQLEMMKVAVQFEDAEAFTQHDFEFHEVMIQATNHQYLKVFWNHLKPVMESLILISMRQRMANDPKDFERIHKNHQVFIDAVENDDASILRKAFHLNFDDVGENIEAFWLR”, the “soluble on expression in E. coli” value is on record as “not soluble”.

For the sequence “MAMTGVLRPGHAQVRVLNLEEGIHFYRNVLGLVETGRDDQGRVYFKCWDERDHSCYIIREADTAGIDFFGFKVLDKATLEKLDADLQAYGLTTTRIPAGEMLETGERVRFELPSGHLIELYAEKTCVGNGISEVNPAPWNAQREHGIAPIQLDHCLLYGPNIAEVQKIFTEVLGFYLVERVLSPDGDSDMGIWLSCSHKVHDIAFVEYPEKGKLHHCSFLLESWEQVLRAGDIMSMNEVNVDIGPTRHGVTRGCTIYAWDPSGNRFETFMGGYHPYPDYEPLSWTYDNFAQGLDYPQRKLHETFMTVVT”, the “soluble on expression in E. coli” value was “soluble”.
